As a reminder, the Km is the substrate concentration at which the rate is half of its maximum. In general, kcat refers to the maximal rate divided by the concentration of active sites. For orientation: kcat/Km means the second-order rate constant that governs catalysis at low substrate concentration. As a reminder, the stoichiometry N is the number of molecules, sites or subunits per partner or assembly.

The test system of series [1] is T1, O=c1ccn([C@H]2C[C@H](O)[C@@H](COP(=O)(O)OP(=O)(O)OP(=O)(O)O)O2)c(=O)[nH]1.
T1 construct: starts at residue 25; R89K to prevent secondary thrombin cleavage; N-terminal 6-His tag cut by thrombin; codon-optimized synthetic gene in pET-15, E. coli; trimer (48 kDa by SEC)
The series can be described thus: cresol red proton-release assay, stopped-flow spectrophotometer, integrated Michaelis-Menten fit. The series is classed as biochemical, Diabrotica virgifera. As to conditions: 50 nM enzyme, 1 mM dUTP; activity prevented by EDTA. The text has this: cresol red proton-release assay, stopped-flow spectrophotometer, integrated Michaelis-Menten fit on WCR dUTPase

Series [2] deals with the molecule itself. As to the kind of experiment: SEC; Superdex matrix, molecular weight calibrated with the BioRad SEC standard; tag-free dUTPase, estimated 48 kDa against 15.6 kDa on SDS-PAGE.

In the case of “WCR dUTPase (Diabrotica virgifera virgifera; R89K)”, in series [1], the Km amounted to 0.7 ± 0.1 µM, the kcat amounted to 30 ± 0.5 s⁻¹ and the kcat/Km turned out to be 4e+07 M⁻¹ s⁻¹.

B1: Western corn rootworm (Diabrotica virgifera virgifera) deoxyuridine 5'-triphosphate nucleotidohydrolase (dUTPase), construct from residue 25 with Arg89Lys, … (enzyme, UniProt A0A6P7FUX9 25-168, looked up)
chain: GANILLKYTKVIEEAYPPTKGSVKAAGYDLKSAHDVVVPARGKALVDTGLKIELPEGCYGRIAPKSGLAVKNFIDVGAGVVDEDYRGLLKVVLFNHSDNDFEVKSGDRIAQLICERIFYPELEEVKELTDTARGEGGFGSTGTQ
notes: dUTPase of Diabrotica virgifera virgifera LeConte (protein XP_028136545; UniProt ID A0A6P7FUX9_DIAVI); the construct starts at the 25th residue of the WCR dUTPase; Arg89 changed to Lys to prevent secondary thrombin cleavage; Cloned into pET-15 by NcoI and XhoI; also called WCR dUTPase; product of WCR DUT; source: E. coli, purified (Ni-NTA, HiTrap Q; His-tag removed with human alpha-thrombin, …)
On to B1, for which the “stoichiometry N” value in series [2] was 3.

(Values after PMC10652518, “Enzyme kinetics of deoxyuridine triphosphatase from Western corn rootworm” (BMC Research Notes, 2023).)
